Measurements taken from article PMC8696033.

Tests used:
[1] = molecular target: WT murine C3b (mouse); assay: SPR; WT murine C3b amine coupled on a CM5 chip; 2-fold dilution series of the FH protein flowed over in duplicate, 30 µl/min; HBST (10 mM HEPES, 150 mM NaCl, 0.005% Tween 20, pH 7.4); steady-state model
[2] = molecular target: WT murine C3b (mouse)
[3] = molecular target: mouse homodimeric minimal factor H (mHDM-FH, mFH^1–5^18–20^R1–2) (mouse) (UniProt P06909); assay: SEC; analytical size exclusion gel filtration; elution volume compared with mFLFH and mini-mFH

Substance | Kd [1] [nM] | IC50 of protection of sheep erythrocytes from lysis by mouse serum (haemolysis assay) [2] [nM] | stoichiometry N [3]
Mouse full length Factor H (mFLFH) (from UniProt P06909 19-1234) (natural protein) | 1700 | – | –
mouse homodimeric minimal factor H (mHDM-FH, mFH^1–5^18–20^R1–2) (from UniProt P06909 19-321; P06909 1050-1234; Q61406 24-152) | 500 | 8 | 2
